# From the supplement of paper PMC12042874
# ± gives the uncertainty stated by the source.
# Test: amyloid nucleation score (Sup35N fusion, yeast selection) (log enrichment); library NNK3; higher = more nucleation; inactive = no reads after selection
# In short: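 The nucleation score, computed with DiMSum, is the log enrichment of output over input reads, centred on the mode score of non-aggregating sequences. Sequences with under 100 input reads were dropped. Reads were generated by Illumina sequencing of plasmid inserts from psi-negative yeast with Sup35N fused to peptides of 20 random codons, induced with 100 μM copper sulfate for 24 hours and grown 7 days at 30°C on medium lacking adenine and uracil.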
row,Substance,amyloid nucleation score
1,MTWNTGLYSRGRHGFYGFST,1.26 ± 0.15
2,MTYST,inactive
3,MVCFYHTGELPDWENR,inactive
4,MVCIDPFNENLVRVRMTVIG,inactive
5,MVFAMTYVLCDDMWSVIGHF,0.141 ± 0.26
6,MVGRGEQVM,inactive
7,MVNLSLCLNVVAEGLNFDRF,1.66 ± 0.091
8,MVVSVQIVFVQVTDMVYHVN,0.393 ± 0.24
9,MVWWNPNSWNVMLSLIWCLV,0.752 ± 0.14
10,MWITIS,inactive
11,MWRPSHTYCLSNGKVECREC,inactive
12,MWSIVSGDKVGSSPVLGGCV,inactive
13,MWSVPLKSQAILYTFDCVSL,0.174 ± 0.44
14,MWVGDKPSGSRRLVLGVRVT,-0.258 ± 0.91
15,MWVPYSAFRMDQEFGFYGIT,0.057 ± 0.24
16,MYGEMYCRFCVVVVGWLQFV,inactive
17,MYNNC,inactive
18,MYTCLVPSSLK,inactive
19,MYWWRFVGLQSIYSGQLCKR,inactive
20,MYYAN,inactive
21,MYYMVTGRLVICRN,inactive
22,NAAGCSVSGCIG,inactive
23,NAFWAILVGPIDPEVSGTYG,inactive
24,NARVDVRRVVLHAKMPSFTI,inactive

row,Substance,amyloid nucleation score
1,NASMNKYYVRFTFGNPHVLL,2.52 ± 0.061
2,NAYLCGWL,inactive
3,NCGSYSKSDN,inactive
4,NCICDIYILTLELSLLRRWV,inactive
5,NCICWASYQTGLE,inactive
6,NCIYLVLN,inactive
7,NCLVVTGRKVPSETHLVFLM,inactive
8,NCNKMCRSCFRCQKTFWVWF,inactive
9,NCSYIDQR,0.483 ± 0.14
10,NCTDLLRMLYGMRRGINSNC,inactive
11,NCTVYLGTFCCSQGFAGLPP,3.07 ± 0.053
12,NCVPSCSAAFKSISRQPHGS,0.115 ± 0.88
13,NDCISHVSSCRMYDETKVCL,inactive
14,NDGTSILSTQSLSVRWMVRV,inactive
15,NDHLLL,inactive
16,NDHPVNSWPVGYSADINQVL,inactive
17,NDNINRSPESSALWYD,inactive
18,NDQKIPLARYLG,inactive
19,NDREWNKRYGINTKQPAAVT,inactive
20,NDSTHLRSRC,inactive
21,NDWRCKEVTSSDIWAFVYCS,0.967 ± 0.12
22,NEGSNATC,0.713 ± 0.13
23,NENYVIAGC,inactive
24,NFDKFDRRRWVMIIVYMAPA,inactive

row,Substance,amyloid nucleation score
1,NFDTDGTALRKLR,inactive
2,NFGHMY,inactive
3,NFGTWDQSVLSLRMKLTCVP,inactive
4,NFKLLLTSPWYATV,inactive
5,NFLSALIYILMAYDRDFVYR,inactive
6,NFSNHCRKLGEME,inactive
7,NGGAHSLGK,inactive
8,NGHKEESILCGNGYWKHASE,inactive
9,NGIVPLSHLFYIGDSVKWWG,inactive
10,NGLVQSMFVIRSLAQRNERR,inactive
11,NGPVGN,inactive
12,NGVLASWWC,inactive
13,NGVLSSA,inactive
14,NGWLLTRLSMHLTFGIYMLV,inactive
15,NGYMSRVHLCPKCFRLHGFR,inactive
16,NGYPHLIQHYLVNAG,inactive
17,NHCNTCSWFLQTS,1.45 ± 0.14
18,NHDIDALTQTQPTDNSYL,inactive
19,NHFAAMLSCFSSRVVVTYQA,inactive
20,NHFFALSLVII,inactive
21,NHIYGMSAFQSGHCGPCRSN,inactive
22,NHNPVCGVDNRMKVVRLYYV,inactive
23,NHQIVRDDRCYKLLIQAVRM,inactive
24,NHSVNAARNLQHQSYCKKSV,inactive

row,Substance,amyloid nucleation score
1,NIAIGLYRFKMLDGKRSCML,inactive
2,NIDVYDLMRLSVFDNKMATG,inactive
3,NIIDKW,-0.357 ± 1.4
4,NINYSPFISAQVGLIMAPLN,inactive
5,NIRICWG,0.795 ± 0.27
6,NIRIDMMWSLSCHKLG,inactive
7,NISSVVLGGGLRVGARRI,inactive
8,NITVHVNRMKFCCMYAESHD,inactive
9,NIVSFVGDVFHSLLVG,inactive
10,NIWRMYEIRSVSGKKLRVDI,inactive
11,NKLFEDSQAETS,inactive
12,NKVVAKHGFGVRSFKIWGLD,inactive
13,NKVYLGLTKLHSSDPSEMAC,2.18 ± 0.067
14,NLDRLYI,inactive
15,NLEYDPIRHRNVLNPSWFCS,inactive
16,NLFFSVSMSAEFEW,0.078 ± 0.37
17,NLFGC,inactive
18,NLGLRGPLLAMKCMIACYVQ,inactive
19,NLGSCVRVGQWISPRRA,inactive
20,NLIVKSNYGAGNDMRCGDYT,inactive
21,NLMEHSIGLYAYYYSLNDCS,inactive
22,NLPLKFDTFTFLCVRLNSLS,inactive
23,NLQERAL,-0.438 ± 0.88
24,NLRHCGCSALGTMTDVNVRG,0.692 ± 0.2

row,Substance,amyloid nucleation score
1,NLSSVSIVALLQRVPIYKYL,inactive
2,NLSWKGNAQDCLMGSVL,inactive
3,NLTRGYISRKRMSCPQ,inactive
4,NLVLCN,inactive
5,NLVNFYYLVRAFDCELLFRG,inactive
6,NLWLKSFWSLRLFLRDL,0.68 ± 0.23
7,NLWVADWIEHHYPSRSSIFA,inactive
8,NLWYAFMSFVVNDGHIRLGR,1.1 ± 0.11
9,NLYFGHKSTS,inactive
10,NMCDNMQQIMVSGYVVVWVY,1.19 ± 0.15
11,NMIIVDFDNLLYNMNYHLAG,1.49 ± 0.11
12,NMLKAASKTVKG,inactive
13,NMQVHFIMCARSRLQGNHVS,inactive
14,NMRVCCIGNSFSMGYLICWY,2.47 ± 0.057
15,NNCEVNLCSLELPWKTKLMM,0.264 ± 0.85
16,NNCTSTRSMVVGEYRKKGAL,-0.46 ± 0.84
17,NNGRYLMGRRKESDLLLGQW,inactive
18,NNRFTGILPVWTMHE,inactive
19,NPGRYRGGRTAHIFPERDIR,inactive
20,NPLDSLYLIDIFAHSSASEL,inactive
21,NPRHGYLPTIIGLDHSIHDL,inactive
22,NPSQSRSASWQHSYHRISGL,inactive
23,NQNIMWIAKYIF,0.845 ± 0.14
